Our source for the EC50 values is EP4578463A1, “ENDO-180 TARGETED ANTIBODY-DRUG CONJUGATES” (Oncomatryx Biopharma, S.L., priority 2023, dated 2025).

In general, EC50 refers to the concentration at which the effect is half-maximal. Read a low EC50 as a more potent agent.

Assay [1] concerns the target T1, human Endo180-moFc domains I-IV (aa 31-513) (human, UniProt Q9UBG0 31-513).
T1 construct: also called huEndo180 (DI-IV); huEndo180-moFc DI-IV; not shown: murine Fc domain
T1 sequence: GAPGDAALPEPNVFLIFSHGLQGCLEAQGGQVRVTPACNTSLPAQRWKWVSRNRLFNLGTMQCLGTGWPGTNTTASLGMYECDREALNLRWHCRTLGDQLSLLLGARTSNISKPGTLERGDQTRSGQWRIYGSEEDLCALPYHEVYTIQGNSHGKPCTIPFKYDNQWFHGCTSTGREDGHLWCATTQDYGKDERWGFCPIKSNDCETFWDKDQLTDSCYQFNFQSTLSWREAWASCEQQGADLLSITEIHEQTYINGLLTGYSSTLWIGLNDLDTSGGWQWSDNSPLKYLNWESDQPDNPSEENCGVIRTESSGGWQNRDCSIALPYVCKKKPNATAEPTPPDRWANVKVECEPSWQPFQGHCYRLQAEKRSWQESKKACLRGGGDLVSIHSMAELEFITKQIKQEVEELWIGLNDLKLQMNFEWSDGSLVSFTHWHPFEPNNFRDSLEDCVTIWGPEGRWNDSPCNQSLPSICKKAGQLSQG
Description: ELISA, immobilized huEndo180-moFc. In general terms: An ELISA detects its analyte on a solid surface through an enzyme-linked reagent.

In assay [2] the target is T2, human Endo180-moFc domains I-III (aa 31-370) (human, UniProt Q9UBG0 31-370).
T2 construct: also called huEndo180 (DI-III); huEndo180-moFc DI-III; not shown: murine Fc domain
T2 sequence: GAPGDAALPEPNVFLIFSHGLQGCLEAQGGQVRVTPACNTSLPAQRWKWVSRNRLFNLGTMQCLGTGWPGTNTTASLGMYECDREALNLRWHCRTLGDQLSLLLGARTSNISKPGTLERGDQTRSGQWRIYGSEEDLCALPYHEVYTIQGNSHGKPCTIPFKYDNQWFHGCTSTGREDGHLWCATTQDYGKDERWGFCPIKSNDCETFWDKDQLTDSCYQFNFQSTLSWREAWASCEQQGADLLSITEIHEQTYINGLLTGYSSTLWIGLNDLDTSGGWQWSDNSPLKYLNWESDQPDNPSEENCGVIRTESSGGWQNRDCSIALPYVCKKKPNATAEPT
Briefly: ELISA, immobilized huEndo180-moFc.

In assay [3] the target is T3, Endo180 on cells (Endo180-expressing HT1080-WT cells; Endo180-transfected HEK293-Endo180 cells) (UniProt Q9UBG0 31-1479).
T3 construct: whole, on cells; One molecule is used for the endogenous protein on HT1080-WT and the transfected protein on HEK293-Endo180; also called uPARAP
T3 sequence (looked up): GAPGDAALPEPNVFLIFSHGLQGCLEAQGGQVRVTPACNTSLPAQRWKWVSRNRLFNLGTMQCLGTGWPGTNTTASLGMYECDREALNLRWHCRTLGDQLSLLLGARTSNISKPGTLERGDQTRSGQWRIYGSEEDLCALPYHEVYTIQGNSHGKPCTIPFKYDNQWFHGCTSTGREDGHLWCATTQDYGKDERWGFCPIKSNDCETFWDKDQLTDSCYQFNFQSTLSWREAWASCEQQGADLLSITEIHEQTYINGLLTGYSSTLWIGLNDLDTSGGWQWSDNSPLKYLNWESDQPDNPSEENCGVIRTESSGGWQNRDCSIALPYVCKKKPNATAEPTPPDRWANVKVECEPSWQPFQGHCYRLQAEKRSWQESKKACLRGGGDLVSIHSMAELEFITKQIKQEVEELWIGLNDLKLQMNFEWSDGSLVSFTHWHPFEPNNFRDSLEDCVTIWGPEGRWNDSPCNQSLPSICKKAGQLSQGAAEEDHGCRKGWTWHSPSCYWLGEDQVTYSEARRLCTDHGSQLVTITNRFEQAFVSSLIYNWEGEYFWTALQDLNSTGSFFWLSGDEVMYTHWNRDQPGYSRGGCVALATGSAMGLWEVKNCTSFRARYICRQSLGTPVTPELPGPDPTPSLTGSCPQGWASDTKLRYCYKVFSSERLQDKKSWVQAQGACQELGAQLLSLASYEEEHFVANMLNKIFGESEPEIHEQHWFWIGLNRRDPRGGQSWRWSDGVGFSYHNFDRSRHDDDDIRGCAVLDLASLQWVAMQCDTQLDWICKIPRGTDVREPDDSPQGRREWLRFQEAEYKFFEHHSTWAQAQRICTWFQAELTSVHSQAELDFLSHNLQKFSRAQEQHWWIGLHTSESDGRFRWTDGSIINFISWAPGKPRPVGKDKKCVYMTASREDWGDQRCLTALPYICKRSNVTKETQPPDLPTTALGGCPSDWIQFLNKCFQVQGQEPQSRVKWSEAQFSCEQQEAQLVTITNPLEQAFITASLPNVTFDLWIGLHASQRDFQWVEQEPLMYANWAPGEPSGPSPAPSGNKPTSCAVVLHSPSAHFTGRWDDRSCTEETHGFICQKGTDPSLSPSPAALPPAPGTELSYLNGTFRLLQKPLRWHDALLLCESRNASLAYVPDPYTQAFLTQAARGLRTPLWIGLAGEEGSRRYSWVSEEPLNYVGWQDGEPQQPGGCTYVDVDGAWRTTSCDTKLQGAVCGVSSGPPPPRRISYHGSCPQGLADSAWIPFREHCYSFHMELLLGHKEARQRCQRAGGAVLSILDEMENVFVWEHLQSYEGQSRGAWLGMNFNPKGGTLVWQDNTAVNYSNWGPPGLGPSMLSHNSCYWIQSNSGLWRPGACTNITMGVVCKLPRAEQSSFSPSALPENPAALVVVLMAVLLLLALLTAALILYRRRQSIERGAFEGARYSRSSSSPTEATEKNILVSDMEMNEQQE
Description: flow cytometry on HEK293-Endo180 cells.

B1: Human IgG1 G7V with a wildtype γ1 heavy chain (antibody, V domains shown)
VH: EVQLVESGGGLVKPGGSLRLSCAASGFTFSSYSMNWVRQAPGKGLEWVANIKPDGSERHSVDSVKGRFTISRDNSKNSLYLQMNSLRAEDTAVYYCARPGAGRLDYWGQGTLVTVSS
VL: SSELTQDPAVSVALGQTVRITCQGDSLRSYYASWYQQKPGQAPVLVVYGKNNRPSGIPDRFSGSSSGNTASLTITGAQAEDEADYYCNSRDSSGNPWAFGGGTKVTVLG
notes: Naked antibody, made in HEK293-6E (lab scale) or CHO (1 L scale); also called IgG G7V; OMTX007-G7V
Take B1: the values for the EC50 in assay [1], in assay [2] and in assay [3] were 0.4 nM, 0.5 nM and 1.5 nM, respectively.
